Measured values as given in patent US8153413B2, “High alkaline protease and use thereof” (Japan Agency for Marine-Earth Science and Technology, priority 2004, dated 2012).

B1: alkaline protease ALTP: purified high alkaline protease from Alkaliphillus transvaalensis, mature enzyme amino acid sequence SEQ ID NO: 3 (protein, listed as Alkaliphillus transvaalensis)
chain: AQSTPWGVTRVQAPNVWNRGFTGSGVRVAVLDTGIHSSHEDLTVSGGYSVFGDSPYNDVQGHGTHVAGTIAARNNSVGVIGVAYNAQLYAVKVLNNQGSGTLAGIAQGIEWARQNNMHVINMSLGGTSGSTTLQNAVNAAYNAGILVVAAAGNSGNSAGTGDNVGFPARYPNAMAVAATTSGNVRASFSSTGPAVEIAAPGQDINSTYPTNTYRSLNGTSMAAPHVAGVAALLKSARPAVTAAGIRNAMNSTALNLGNSNWYGNGLVRANNALDMVLSY

Experiments:
[1] = system: invention enzyme; test: Hydrolysis of natural proteins relative to casein; format: biochemical, Alkaliphillus transvaalensis
[2] = system: casein; test: Optimum pH / active pH, casein method; format: biochemical; conditions: 1% (w/v) casein, 40° C., 15 minutes, highest activity in 50 mmol/L potassium chloride/sodium hydroxide buffer
Method: 1 ml of each 50 mmol/L buffer containing 1% (w/v) casein (Hammerstein, Merck) was warmed at 40° C. for 5 minutes, and 0.1 ml of the enzyme solution was then added. A reaction was conducted for from 15 to 20 minutes. Subsequently, 2 ml of a trichloroacetic acid solution (TCA solution: 0.11 mol/L trichloroacetic acid, 0.22 mol/L sodium acetate and 0.33 mol/L acetic acid) was added to terminate the reaction. The reaction solution was allowed to stand at room temperature for 10 minutes, and the acid-modified protein was filtered (No. 2 filter paper, manufactured by Watman). 2.5 ml of an alkaline copper reagent [1% (w/v) potassium sodium tartrate: 1% (w/v) copper sulfate: 2% (w/v) sodium carbonate/0.1 mol/L sodium hydroxide=1:1:100] was added to 0.5 ml of the filtrate, and the mixture was warmed at 30° C. for 10 minutes. Thereafter, 0.25 ml of a dilute phenol reagent [phenol reagent (manufactured by Kanto Kagaku) diluted twofold with deionized water] was added, and the mixture was warmed at 30° C. for 30 minutes. Absorbance at 660 nm was measured with a spectrophotometer to obtain an amount of an acid-soluble protein hydrolyzate. By the way, a system obtained by mixing the enzyme reaction system with a reaction terminator and adding the enzyme solution thereto was used as a blank.
Herein, one unit (PU) of the enzyme referred to an amount of an enzyme in which to liberate the acid-soluble protein hydrolyzate corresponding to 1 μmol of tyrosine for 1 minute under the foregoing reaction conditions.
The invention enzyme was reacted at 40° C. for 15 minutes in various buffers of pH 3.5 to 12.6 containing 1% (w/v) casein as a substrate, and the enzymatic activity at each pH was measured. The results thereof are shown in FIG. 1A in terms of relative activity when the highest activity was defined as 100%.
Acetate buffer ( ? ): pH 3.5 to 6.0, phosphate buffer (▪): pH 6.5 to 8.1, carbonate buffer (◯): pH 9.0 to 11.0, phosphate/sodium hydroxide buffer (●): pH 11.0 to 12.2, and potassium chloride/sodium hydroxide buffer (▴): pH 11.5 to 12.6.

[3] = system: casein; test: Optimum temperature, casein method; format: biochemical; conditions: for influence of Ca2+ / calcium chloride on optimum temperature: calcium chloride 5 mmol/L
Method: 0.1 ml of the invention enzyme solution was added to 1 ml of 50 mmol/L borate buffer (pH 10.0) containing 0.5% (w/v) casein as a substrate, and a reaction was conducted at a temperature of from 30 to 85° C. for 15 minutes. Activity was measured by the casein method. Relative activity at each temperature is shown in FIG. 2A in which activity in the absence of calcium chloride at 50° C. is defined as 100%. “●” indicates relative activity in the absence of calcium chloride, and “∘” relative activity in the presence of calcium chloride.

[4] = Thermostability, residual activity after heat treatment by casein method; format: physicochemical; conditions: for influence of Ca2+ / calcium chloride on thermostability: calcium chloride 5 mmol/L
Method: The invention enzyme was added to 50 mmol/L borate buffer (pH 10.0), and heat treatment was conducted at each temperature of from 30 to 75° C. for 10 minutes. The residual activity was measured by the casein method. The residual activity after the heat treatment is shown in FIG. 2B in which activity before the heat treatment is defined as 100%.

[5] = system: acidic insulin B-chain; test: Cleavage of acidic insulin B-chain (LC/MS/MS); format: biochemical; conditions: 30° C.
Method: 3 ng of alkaline protease ALTP was added to a solution obtained by adding 0.1 mg of insulin B-chain to 100 μl of 0.1 mol/L Tris-hydrochloride buffer (pH 8.0), and a reaction was conducted at 30° C. for from 1 to 5 minutes. 5 μl of the solution was collected after 1 minute, 2 minutes and 5 minutes from the start-up of the reaction, and the reaction was terminated by addition of 50 μl of a 2% (v/v) acetonitrile/0.1% trifluoroacetic acid solution (pH 2.2). The reaction solutions were analyzed by liquid chromatograph/tandem mass analyzer (LC/MS/MS). A mixture of fragmental peptides digested with alkaline protease ALTP of the invention was separated and concentrated by capillary HPLC, and ionized to obtain MS and MS/MS spectra. The MS/MS data of the peptides was subjected to Turbo Sequest search to identify the digested acidic insulin B-chain fragments and determine the cleavage sites. Because of the search with the MS/MS data, the highly reliable identification results were obtained.
A reaction was conducted at 30° C. for 24 hours under the same conditions as in (i) by changing the concentration of alkaline protease ALTP to 300 ng. After the termination of the reaction, the acidic insulin B-chain fragment digested with alkaline protease ALTP was identified by the foregoing method to determine cleavage sites. […]

[6] = listed as novel alkaline protease

Molecule | hydrolytic activity, casein defined as 100% [1] | optimum pH [2] | optimum pH ([2]; listed as invention enzyme) | optimum pH [2, 6] | optimum temperature ([3]; borate buffer pH 10.0, casein, 15 minutes) | influence of Ca2+ / calcium chloride on optimum temperature [3] | influence of Ca2+ / calcium chloride on optimum temperature ([3]; listed as invention enzyme) | influence of Ca2+ / calcium chloride on optimum temperature [3, 6] | influence of Ca2+ / calcium chloride on thermostability [4] | influence of Ca2+ / calcium chloride on thermostability ([4]; listed as invention enzyme) | influence of Ca2+ / calcium chloride on thermostability [4, 6] | temperature up to which stable without activity drop by heating ([4]; pH 10 for 10 minutes) | bond cleaved first / at the initial stage ([5]; 3 ng ALTP, within 5 minutes) | peptide bonds of 29 peptide bonds cleaved ([5]; 300 ng ALTP, within 24 hours)
hemoglobin | approximately 73% | – | – | – | – | – | – | – | – | – | – | – | – | –
B1 | – | 12.6 | approximately 12.6 | approximately 12.6 | 70 °C | little influenced | unchanged | still unchanged | No improvement | unchanged | still unchanged | up to 65 °C | Leu-Tyr | 26
